Patent US20150037348A1 (AbbVie / Abbott, published 2015)
“And” between values parts separate entries of the source, which are not always exact repeats. Identical values can stand only once. Like-named read-outs stand apart in the source and are kept apart here.

Key:
[1] = biological target: T1, recombinant human IL-12 (rhIL-12) (human, UniProt P29459 23-219; P29460 23-328); test: cell-based or functional assay
T1 sequence (looked up) 1: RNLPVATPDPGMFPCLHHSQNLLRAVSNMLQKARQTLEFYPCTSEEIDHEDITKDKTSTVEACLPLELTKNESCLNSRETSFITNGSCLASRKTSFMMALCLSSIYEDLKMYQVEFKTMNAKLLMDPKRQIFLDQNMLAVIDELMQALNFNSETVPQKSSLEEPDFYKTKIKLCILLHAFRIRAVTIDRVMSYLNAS
T1 sequence (looked up) 2: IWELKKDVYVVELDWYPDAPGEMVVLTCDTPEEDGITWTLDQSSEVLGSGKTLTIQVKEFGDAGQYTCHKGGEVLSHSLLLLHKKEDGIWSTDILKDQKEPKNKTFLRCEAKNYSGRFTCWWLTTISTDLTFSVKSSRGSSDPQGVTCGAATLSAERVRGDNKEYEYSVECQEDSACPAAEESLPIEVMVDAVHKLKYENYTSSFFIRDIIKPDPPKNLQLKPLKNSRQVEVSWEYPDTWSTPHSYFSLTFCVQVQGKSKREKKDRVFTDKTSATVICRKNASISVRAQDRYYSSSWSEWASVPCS

[2] = biological target: T1, recombinant human IL-12 (rhIL-12); test: receptor binding assay, 125I-hIL-12 on PHA blasts
Protocol: PHA blast cells isolated as described above, were washed once and resuspended in binding buffer to a cell density of 2×10⁷ cells/ml. […] The cell pellet was examined for cell bound radioactivity using a gamma counter. […] Incubations were carried out in duplicate.

[3] = biological target: T1, recombinant human IL-12 (rhIL-12); test: cell-based or functional assay; remark: listed apart in the source
[4] = biological target: T1, recombinant human IL-12 (rhIL-12); test: BIAcore SPR
[5] = biological target: T1, recombinant human IL-12 (rhIL-12); test: cell-based or functional assay; remark: listed apart in the source
[6] = biological target: T2, human interleukin 12 (p70 heterodimer of p35 and p40) (human, UniProt P29459 23-219; P29460 23-328); test: BIAcore
T2 construct: Recombinant human IL-12; p35 and p40 linked by a disulfide bridge; also called hIL-12; IL-12
T2 sequence (looked up) 1: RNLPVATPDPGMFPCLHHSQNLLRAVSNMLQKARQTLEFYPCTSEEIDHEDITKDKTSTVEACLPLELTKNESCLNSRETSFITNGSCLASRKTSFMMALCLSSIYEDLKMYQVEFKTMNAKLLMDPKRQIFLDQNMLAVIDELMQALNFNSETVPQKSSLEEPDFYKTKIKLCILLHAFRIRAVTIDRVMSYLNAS
T2 sequence (looked up) 2: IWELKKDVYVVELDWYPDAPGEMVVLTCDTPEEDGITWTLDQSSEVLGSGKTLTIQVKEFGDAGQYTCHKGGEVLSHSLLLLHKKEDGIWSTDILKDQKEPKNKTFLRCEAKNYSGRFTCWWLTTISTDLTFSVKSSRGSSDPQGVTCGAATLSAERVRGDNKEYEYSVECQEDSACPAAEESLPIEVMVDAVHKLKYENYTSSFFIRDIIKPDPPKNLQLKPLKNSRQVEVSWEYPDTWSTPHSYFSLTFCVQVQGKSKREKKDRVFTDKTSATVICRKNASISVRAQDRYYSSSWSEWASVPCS

[7] = biological target: T2, human interleukin 12 (p70 heterodimer …); test: BIAcore; remark: listed apart in the source
[8] = biological target: T2, human interleukin 12 (p70 heterodimer …); test: BIAcore; remark: listed apart in the source
[9] = biological target: T2, human interleukin 12 (p70 heterodimer …); test: BIAcore; remark: listed apart in the source
[10] = biological target: T2, human interleukin 12 (p70 heterodimer …); test: BIAcore; remark: listed apart in the source
[11] = biological target: T2, human interleukin 12 (p70 heterodimer …); test: BIAcore; remark: listed apart in the source
[12] = biological target: T2, human interleukin 12 (p70 heterodimer …); test: BIAcore; remark: listed apart in the source

B1: Y61 IgG (antibody, V domains shown)
VH: QVQLVQSGGGVVQPGRSLRLSCAASGFTFSSYGMHWVRQAPGKGLEWVAFIRYDGSNKYYADSVKGRFTISRDNSKNTLYLQMKSLRAEDTAVYYCKTHGSHDNWGQGTMVTVSS
VL: SYVLTQPPSVSGTPGQRVTISCSGGRSWIGSNTVKWYQQLPGTAPKLLIYGNDQRPSGVPDRFSGSKSGTSASLAITGVQAEDEADYYCQSYDRGTHPALLFGTGTKVTVLG
notes: whole IgG1; also called Y61-IgG1
- PHA assay IC50 (M) p70:p40 1:0 [1]: 1.8e-10 M
- PHA assay IC50 (M) p70:p40 1:50 [1]: 1.8e-10 M
- IC50 [2]: 0.016 nM
- IC50 (M), bioassay, Human IL-12 Purified [3]: 1.7e-10 M
- koff [4]: 0.00015 s⁻¹
- PHA assay IC50 [5]: 130 pM

B2: Y61 scFv (scFv, V domains shown)
VH: QVQLVQSGGGVVQPGRSLRLSCAASGFTFSSYGMHWVRQAPGKGLEWVAFIRYDGSNKYYADSVKGRFTISRDNSKNTLYLQMKSLRAEDTAVYYCKTHGSHDNWGQGTMVTVSS
VL: SYVLTQPPSVSGTPGQRVTISCSGGRSWIGSNTVKWYQQLPGTAPKLLIYGNDQRPSGVPDRFSGSKSGTSASLAITGVQAEDEADYYCQSYDRGTHPALLFGTGTKVTVLG
notes: Single chain Fv; also called clone Y61
- koff [6]: 0.000204 s⁻¹ and 0.000206 s⁻¹ and 0.000151 s⁻¹ and 0.000178 s⁻¹
- koff [7]: 0.000249 s⁻¹ and 0.000168 s⁻¹ and 0.000337 s⁻¹ and 0.000178 s⁻¹
- koff [8]: 0.000211 s⁻¹ and 0.000229 s⁻¹ and 0.000241 s⁻¹
- koff [9]: 0.000259 s⁻¹ and 0.000199 s⁻¹ and 0.000256 s⁻¹
- koff [10]: 0.000403 s⁻¹
- koff [11]: 0.000215 s⁻¹ and 0.000297 s⁻¹
- koff [12]: 0.000385 s⁻¹ and 0.00031 s⁻¹

B3: AO3 IgG1 (antibody, V domains shown)
VH: QVQLVQSGGGVVQPGRSLRLSCAASGFTFSSYGMHWVRQAPGKGLEWVAFIRYDGSNKYYADSVKGRFTISRDNSKNTLYLQMKSLRAEDTAVYYCKTHGSHDNWGQGTMVTVSS
VL: SYVLTQPPSVSGTPGQRVTISCSGGRSNIGSNTVKWYQQLPGTAPKLLIYGNDQRPSGVPDRFSGSKSGTSASLAITGVQAEDEADYYCQSYDRGTHPLTMFGTGTKVTVLG
notes: IgG1
- PHA assay IC50 (M) p70:p40 1:0 [1]: 2.5e-10 M
- PHA assay IC50 (M) p70:p40 1:50 [1]: 2.2e-10 M
- IC50 [2]: 0.029 nM
- koff [4]: 0.000304 s⁻¹
- PHA assay IC50 [5]: 380 pM
